In patent publication US20120207760A1 (THERACLONE SCIENCES, published 2012) one finds OD450 data, which are given here for nine molecules.

The chains are these.
B1: TCN-560 (5084_P10) (antibody, V domains shown)
VH: EVQLVESGGGLVQPGGSLRLSCAASGFIFRNYWMSWVRQAPGKGLEWVANIKQDGREKYYVDSLRGRVNISRDNAENSLYLHMNSLRVEDTAVYFCARARMVVVTGDGFDVWGHGTMVTVSS
VL: DIQMTQSPSSLSASVGDRVTITCRASQNIKRYFNWYQQKPGKAPKLLIYAASNLENGVPSRFSGSGSGTDFTLTISSLQPEDFATYYCQQSFSKSWTFGQGTNVDIK
B2: TCN-552 (5249_I23) (antibody, V domains shown)
VH: QVQVVQSGAEVKKPGSSVRVSCQASGGTFMNYAIIWVRRAPGQGLEWMGGIIPVFPTPNYAQMFQGRVTISTDESRSTSFLELTNLRYEDTAVYYCARRIYHGGNSGFDFWGQGTLVTVSS
VL: EIVLTQSPATLSLSPGERATLSCRASQSVGNYLAWYQQKPGQAPRLLIYDSSNRAPGIPARFSGSGSGTDFTLTISSLAPEDFAVYYCQQRSKWPPMYSFGHGTKLEIK
B3: TCN-553 (5261_C18) (antibody, V domains shown)
VH: QVQVVQSGTEVKKPGSSVKVSCQTSGGRFMSYAITWVRQAPGQGLEWMGGIVPVFGTANYAQKFQGRVTITTDDSTRTAYMELSSLRSEDTAVYYCGFRYGSGYGFDSWGQGTLVTVSS
VL: EIVLTQSPGTLSLSPGERATLSCRASQSVSSSYLAWYQKKPGQAPRLLIYGASTRATGIPDRFTGSGSGTDFTLSISRLEPEDFAVYYCQHFGTSVFTFGGGTKVEIK
B4: TCN-550 (5096_F06) (antibody, V domains shown)
VH: QVQLQESGPGLVKPSETLSLTCTVSGASINSHYWSWIRQPPGKGLEWIGYVYYSGSTTYNPSLKSRVTLSVDTSKNQFSLNLSSVTAADTAFYYCARHPYDVLTGSGDWFDPWGQGTLVTVSS
VL: SYVLTQAPSVSVAPGQTARITCGGNAIGSKKVHWYQHKAGQAPVLVVYDDTDRPSGIPERFSGSNSWSTATLTINRVEAGDEADYYCQVWDFTIDHVVFGGGTKLTVL
B5: TCN-557 (5081_A04) (antibody, V domains shown)
VH: QVQLVQSGAEVKKPGASVKVSCKASGHTFTGYYIHWVRQAPGQGLEWMGWINPDSGATSSAQNFQGRVTMTGDTSSSTAYMELSRLSFDDTAVYYCARVLFTSPFDFWGEGTLVTVSS
VL: QAVVTQEPSLAVSPGGTVTLTCGSSTGAVTRGHYPYWFQQKPGQAPRALIYDSAGNRHSWTPARFSGSLLGGKAALTLSGAQPEDEAEYYCLLSYSGVWVFGGGTKLTVL
B6: TCN-549 (5092_P04) (antibody, V domains shown)
VH: QVQLVQSGAEVKKPGASVKVSCKASGYTFTGYYMHWVRQAPGQGLEWMGWINPNSGDTNYAQKFQGRVTMTRDTSITTAYMELSSLRSDDTAVYYCARDSPYSSSWSFFDYWGQGPLVTVSS
VL: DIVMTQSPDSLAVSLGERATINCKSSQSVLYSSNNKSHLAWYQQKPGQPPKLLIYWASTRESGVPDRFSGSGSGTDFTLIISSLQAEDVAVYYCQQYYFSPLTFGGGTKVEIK
B7: TCN-548 (5092_P01) (antibody, V domains shown)
VH: QVQLQESGPGLVKPSETLSLTCTVSSGPMSDYYWSWIRQPPGKGLEWIGHVSVSHGGRTKSNPSVMSRVTISVETSKNQFSLKLTSVTAADTAVYYCARLNYYDRSGYHSPDGPSNNWFDPWGQGTLVTVSS
VL: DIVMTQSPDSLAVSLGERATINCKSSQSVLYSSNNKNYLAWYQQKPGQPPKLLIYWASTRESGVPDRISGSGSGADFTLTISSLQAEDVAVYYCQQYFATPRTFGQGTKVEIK
B8: TCN-555 (5246_L16) (antibody, V domains shown)
VH: QVQLVQSGAEVKRPGSSVKVSCTASGGIFRKNAISWVRQAPGQGLEWMGGIIAVFNTANYAQKFQNRVKITADESGNTAYMELSSLTSDDTAVYYCASHPKYFYGSGSYPDFWGQGTLVTVSS
VL: QSALTQPRSVSGSPGQSITISCTGGSSDIGASNSVSWYQQHPGKAPKLVIFDVTERPSGVPHRFSGSKSGNTASLTVSGLQPDDEADYFCCAYGGKYLVVFGGGTKVTVL
B9: TCN-556 (5089_K12) (antibody, V domains shown)
VH: QVQLVQSGAEVKKPGASVKVSCKASGYTFIGYDMHWVRQAPGQGLEWMGWINAKRGGTNYAQKFQGRVTMTRDTSISTAYMELNSLRSDDTAVYYCARGVGSRTTIFGVLNPEFDYWGQGTLVTVSS
VL: QSALTQPPSASGSPGQSVTISCTGSSSDVGGYDYVSWYQQHPGKAPKLLIYEVTKRPSGVPDRFSGSKSGNTASLTVSGLQAEDEADYYCSSYAGNYNHVFGPGTKVTVL

The target in this test is Hemagglutinin of influenza A/Japan/305/57 (H2N2), on inactivated whole virions (Influenza A virus A/Japan/305/1957 …, UniProt P03451 16-562). The experiment in a line: ELISA, B cell culture supernatant on inactivated whole virions.
The molecule B1 displayed an OD450 of 2.07 OD450.

The molecule B2 showed an OD450 of 0.71 OD450.

Take B3: the OD450 was 2.54 OD450.

B4 yielded an OD450 of 0.06 OD450.

B5 registered an OD450 of 2.7 OD450.

Consider B6, for which the OD450 came out at 0.08 OD450.

In turn, B7 had an OD450 of 0.09 OD450.

For the molecule B8, the OD450 is 0.6 OD450.

Turning to B9, the OD450 stood at 2.41 OD450.
